Residue numbers refer to the chain shown, from its start. Names and notes keep the numbering of the source.
B1: UGT74S1 (wild type, W) (Linum usitatissimum) (protein)
chain: MAGDEREKAHCLVVPAAAQGHFTPLLQFSKRLIPKRIRVTLALTRFIHSTMTVTAQSGIHIDTISDGFDHSGLILQDPEHYSQTFRRVGSETLTDLIRKQSESRHPVHCIIYDASMPWFLDVAKRFGIVGAAFLTQSCAVNAIYYHLREGTIKRPVVSDPAAGTLVIDGLPPLEVSDLPSFIWDDLHTEFLAAHLRQFSNDGADWVFCNTVYQLELEAVDWLTKQWLINFRTIGPTIPSFYLDKQIPDDKDYDISIFNPQNQTCMNWLQSKPDGSVVYVSFGSLARLSPQQTEELYFGLKNSNHYFLWVVRESEVAKLPKEEYLSGEKGLVVSWCSQLQVLASGKVGCFVTHCGWNSTLEALSLGVPMVAMPECGDQLTNAKFIKDVWKTGVRAEADDGKGIMWGMIKREVIERCIREVMEGEETRRNADKWGKIIKEAVVEGGSSDKNTEDFATSLINFAETFQFSC
B2: UGT74S1 (wild type, W) (Linum usitatissimum; C335A) (protein)
chain: B1 chain with C335A
B3: UGT74S1 (wild type, W) (Linum usitatissimum; Q337A) (protein)
chain: B1 chain with Q337A

substrate: COc1cc(C[C@@H](CO)[C@H](CO)Cc2ccc(O)c(OC)c2)ccc1O; experiment: UPLC-MS assay of SMG formation, Lineweaver-Burk; assay type: biochemical, Linum usitatissimum; settings: 70-1650 µM SECO, 1.64 mM UDP-glucose fixed, 1 mM NaCl, pH 8.0, 30°C, for SMG production
Description: (§1) UPLC-MS assay of SMG formation, Lineweaver-Burk on UGT74S1 (wild type, W)

| Protein | Km | kcat | kcat/Km |
| --- | --- | --- | --- |
| B1 | 717 µM | 0.23 s⁻¹ | 321 M⁻¹ s⁻¹ |
| B2 | 1538 µM | 0.0494 s⁻¹ | 32.1 M⁻¹ s⁻¹ |
| B3 | 2716 µM | 0.0077 s⁻¹ | 2.85 M⁻¹ s⁻¹ |

substrate: O=c1ccn([C@@H]2O[C@H](CO[P@@](=O)(O)O[P@@](=O)(O)O[C@H]3O[C@H](CO)[C@@H](O)[C@H](O)[C@H]3O)[C@@H](O)[C@H]2O)c(=O)[nH]1; experiment: UPLC-MS assay of SMG formation, Lineweaver-Burk; assay type: biochemical, Linum usitatissimum; settings: 0.82-8.2 mM UDP-glucose, 280 µM SECO fixed, 1 mM NaCl, pH 8.0, 30°C, for SMG production
Description: as §1

| Protein | Km | kcat | kcat/Km |
| --- | --- | --- | --- |
| B1 | 1103 µM | 0.135 s⁻¹ | 122 M⁻¹ s⁻¹ |
| B2 | 3443 µM | 0.256 s⁻¹ | 74.3 M⁻¹ s⁻¹ |
| B3 | 27610 µM | 0.547 s⁻¹ | 19.8 M⁻¹ s⁻¹ |

Source: PMC4340967, “Histidine 352 (His^352) and Tryptophan 355 (Trp^355) Are Essential for Flax UGT74S1 Glucosylation Activity toward Secoisolariciresinol” (PLoS ONE, 2015)
